Reference: patent US20230340071A1 (published 2023)
Where a chain is given by its changes, count along the chain named. Names may count otherwise.

T1: human IL-2 receptor (IL-2Rβγc) on cells (human, UniProt P14784 27-551; P31785 23-369)
T1 sequence 1: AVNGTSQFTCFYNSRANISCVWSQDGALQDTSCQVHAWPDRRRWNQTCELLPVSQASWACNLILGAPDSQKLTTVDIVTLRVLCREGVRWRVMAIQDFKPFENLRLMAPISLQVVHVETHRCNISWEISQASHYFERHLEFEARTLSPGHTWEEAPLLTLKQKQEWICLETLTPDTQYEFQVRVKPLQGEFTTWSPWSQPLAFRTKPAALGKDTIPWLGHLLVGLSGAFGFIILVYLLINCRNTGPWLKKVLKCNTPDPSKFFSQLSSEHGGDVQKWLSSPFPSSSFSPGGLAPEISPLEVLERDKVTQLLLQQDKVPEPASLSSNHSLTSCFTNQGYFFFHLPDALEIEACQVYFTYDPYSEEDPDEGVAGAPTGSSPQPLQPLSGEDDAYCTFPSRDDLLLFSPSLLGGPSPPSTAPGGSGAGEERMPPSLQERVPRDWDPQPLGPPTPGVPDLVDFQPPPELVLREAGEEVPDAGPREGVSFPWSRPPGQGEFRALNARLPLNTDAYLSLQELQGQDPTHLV
T1 sequence 2: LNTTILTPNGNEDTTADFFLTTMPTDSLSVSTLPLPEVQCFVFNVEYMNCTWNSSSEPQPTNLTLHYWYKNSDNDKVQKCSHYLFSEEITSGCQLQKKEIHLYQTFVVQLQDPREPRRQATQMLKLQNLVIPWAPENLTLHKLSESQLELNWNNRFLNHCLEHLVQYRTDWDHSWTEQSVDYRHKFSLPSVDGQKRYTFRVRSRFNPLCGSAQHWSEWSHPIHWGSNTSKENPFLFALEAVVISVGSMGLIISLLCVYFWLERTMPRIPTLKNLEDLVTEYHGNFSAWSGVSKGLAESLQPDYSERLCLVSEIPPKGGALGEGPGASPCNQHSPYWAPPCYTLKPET

T2: hIL-2RBG (biotinylated hIL2RG on the sensor with hIL2RB in solution) (UniProt P14784 27-240; P31785 23-262, biotinylated (site not stated))
T2 chain 1: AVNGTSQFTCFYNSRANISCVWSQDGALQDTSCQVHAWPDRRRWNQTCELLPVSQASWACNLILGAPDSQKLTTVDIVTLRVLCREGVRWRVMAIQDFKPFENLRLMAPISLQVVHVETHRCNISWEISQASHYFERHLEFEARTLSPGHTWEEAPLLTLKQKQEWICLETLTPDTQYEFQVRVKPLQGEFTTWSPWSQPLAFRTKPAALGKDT
T2 chain 2: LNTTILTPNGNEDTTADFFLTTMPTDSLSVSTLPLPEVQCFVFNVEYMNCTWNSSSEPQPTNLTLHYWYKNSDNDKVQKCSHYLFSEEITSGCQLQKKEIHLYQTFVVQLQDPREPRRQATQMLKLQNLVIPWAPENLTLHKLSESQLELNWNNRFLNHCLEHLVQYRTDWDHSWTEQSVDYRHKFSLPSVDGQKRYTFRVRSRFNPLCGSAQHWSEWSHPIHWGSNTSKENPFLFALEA

T3: Biotinylated hIL2RG (human, UniProt P31785 23-262, limits assumed, biotinylated (site not stated))
T3 construct: also called human common gamma receptor (hIL2RG); hIL-2Rγc
T3 sequence: T2 chain 2

T4: Biotinylated hIL2RB (UniProt P14784 27-240, biotinylated (site not stated))
T4 chain: T2 chain 1

T5: hIL2RB-fc chimera (human, UniProt P14784 27-240)
T5 construct: also called hIL2 receptor beta; hIL-2Rβ; not shown: Fc part of the bought chimera (captured on anti-human IgG Fc biosensors)
T5 sequence: T2 chain 1

T6: hIL2RG-fc chimera (human, UniProt P31785 23-262)
T6 construct: also called hIL2G; hIL2 receptor gamma; not shown: Fc part of the bought chimera (captured on anti-human IgG Fc biosensors)
T6 sequence: T2 chain 2

T7: mouse IL-2 beta receptor (mouse, UniProt P16297 27-240)
T7 construct: also called mIL2RB; beta part of mIL2RBG
T7 sequence (looked up): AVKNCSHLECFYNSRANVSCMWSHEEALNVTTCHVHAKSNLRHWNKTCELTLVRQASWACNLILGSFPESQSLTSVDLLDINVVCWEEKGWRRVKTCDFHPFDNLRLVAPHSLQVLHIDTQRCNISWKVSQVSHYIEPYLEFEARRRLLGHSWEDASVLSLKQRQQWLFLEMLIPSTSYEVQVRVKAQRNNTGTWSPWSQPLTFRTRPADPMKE

B1: Protein 6 (P6) (designed binder)
chain: PKKKIQLFAEHALYDAEMILKIVKTNSPPAEEELEDYAFNFELILEEIARLFESGDQKDEAEKAKRMKEWMKRIKTTASEDEQEEMANKIRKILEEWIRS
notes: P5 with 'Y8F' (printed; P5 has H at 8) and K33E; N-terminal 6xHis tag and thrombin site in the expression vector
B2: Protein 5 (P5) (designed binder)
chain: B1 chain with F8H, E33K
notes: N-terminal 6xHis tag and thrombin site in the expression vector
B3: Protein 1 (P1) (designed binder)
chain: B1 chain with F8H, L13R, K21N, E33K, K89A, R91I, K92T, E95T, E96S
notes: as for B2
B4: Neo-2/15 (designed binder)
chain: B1 chain with F8H, E17L, K21N, E33K, K89A, R91I, K92T, E95Q, E96S, R99F
notes: Proteins were expressed in E. coli with an N-terminal 6xHis tag and thrombin site; also called Neoleukin-2/15
B5: Protein 2 (P2) (designed binder)
chain: B1 chain with F8H, E33K, K89R
notes: as for B2
B6: Protein 3 (P3) (designed binder)
chain: B1 chain with F8Y, L13R, K21N, K89A, R91I, K92T, E95T, E96S
notes: P1 with H8Y and K33E; N-terminal 6xHis tag and thrombin site in the expression vector

How the values were obtained:
[1] = target: T1, human IL-2 receptor (IL-2Rβγc) on cells; assay: cell-based or functional assay
[2] = target: T2, hIL-2RBG (biotinylated hIL2RG on the …); assay: BLI competition, inhibition of hIL-2 binding
Biotinylated hIL2RG = target: T3, Biotinylated hIL2RG; assay: BLI (Octet RED96), biotinylated hIL2RG on streptavidin sensors, 200 nM protein + 200 nM hIL2RB
Method: Biotinylated hIL2RG molecules were immobilized to Streptavidin sensors (SA, ForteBio) at 2 μg/mL in binding buffer (10 mM HEPES, pH 7.4, 150 mM NaCl, 3 mM EDTA, 0.05% surfactant P20, 0.5% non-fat dry milk). After baseline measurement in the binding buffer alone, the binding kinetics were monitored by dipping the biosensors in wells containing 200 nM of protein and 200 nM of hIL2RB for 300 sec. Data were collected in an Octet RED96 (ForteBio) and processed using the instrument's integrated software.

Biotinylated hIL2RB = target: T4, Biotinylated hIL2RB; assay: BLI
hIL2RB-fc chimera [3] = target: T5, hIL2RB-fc chimera; assay: BLI (Octet RED96e), hIL2RB-fc (AcroBiosystems) on anti-human IgG Fc sensors
Method: (§1) For this purpose, sensors were soaked in samples containing 20 nM of hIL2RB-fc chimera (AcroBiosystems) for 300 sec. […] Finally, sensors were removed from the protein samples and dipped in buffer solutions to promote and measure dissociation (1500 sec). The buffer used to prepare all the samples and soak the sensors was HBS-EP+from GE Healthcare, which contains 10 mM HEPES, 150 mM NaCl, 3 mM EDTA and 0.05% v/v surfactant P20, pH 7.4. Data were acquired at 30° C. using an Octet RED96e system (ForteBio) and processed using the instrument's integrated software. Kinetics were fitted to a 1:1 binding model after subtracting a buffer signal baseline and the Kd values were calculated.

[4] = target: T1, human IL-2 receptor (IL-2Rβγc) on cells; assay: cell-based or functional assay; remark: listed apart in the source
hIL2RG-fc chimera [5] = target: T6, hIL2RG-fc chimera; assay: BLI (Octet RED96e), hIL2RG-fc (AcroBiosystems) on anti-human IgG Fc sensors
Method: as §1, with “hIL2RG-fc” for “hIL2RB-fc”, “HBS-EP+ from” for “HBS-EP+from”

hIL2RG-fc chimera [6] = target: T6, hIL2RG-fc chimera; assay: BLI (Octet RED96e), hIL2RG-fc (Symansis) on anti-human IgG Fc sensors, protein + 200 nM hIL2RB-fc
Method: (§2) All samples were prepared using HBS-EP+ buffer from GE Healthcare, which contains 10 mM HEPES, 150 mM NaCl, 3 mM EDTA and 0.05% v/v surfactant P20, pH 7.4. Data were acquired at 30° C. using an Octet RED96e system (ForteBio) and processed using the instrument's integrated software.

hIL2RG-fc chimera [7] = target: T6, hIL2RG-fc chimera; assay: BLI (Octet RED96e), hIL2RG-fc on anti-human IgG Fc sensors
Method: as §1, with “hIL2RG-fc” for “hIL2RB-fc”, “HBS-EP+ from” for “HBS-EP+from”

hIL2RB-fc chimera [8] = target: T5, hIL2RB-fc chimera; assay: BLI (Octet RED96e), hIL2RB-fc (Symansis) on anti-human IgG Fc sensors
Method: as §1, with “(Symansis)” for “(AcroBiosystems)”

hIL2RG-fc chimera [9] = target: T6, hIL2RG-fc chimera; assay: BLI (Octet RED96e), hIL2RG-fc on anti-human IgG Fc sensors, 200 nM P3 + 200 nM hIL2RB-fc
Method: as §2

mouse IL-2 beta receptor = target: T7, mouse IL-2 beta receptor; assay: BLI competition: mIL2RG on sensor, dilutions of P3 + 20 nM Neo-2/15; competitor Neo-2/15; read-out binding to mIL2RBG
Method: as §2, with “HBS-EP+buffer” for “HBS-EP+ buffer”, “software. IC50 values were estimated from response vs antagonist concentration plots.” for “software.”

hIL2RB-fc chimera [10] = target: T5, hIL2RB-fc chimera; assay: BLI competition: hIL2RG-fc on sensor, dilutions of P3 + 20 nM Neo-2/15 + 50 nM hIL2RB-fc; competitor Neo-2/15; read-out binding to hIL2RBG
Method: as §2, with “HBS-EP+buffer” for “HBS-EP+ buffer”, “software. IC50 values were estimated from response vs antagonist concentration plots.” for “software.”

[11] = target: T1, human IL-2 receptor (IL-2Rβγc) on cells; assay: cell-based or functional assay; remark: listed apart in the source

Row | Binder | Signaling Inhibition IC50 (1 nM hIL-2, pSTAT5, CD8+ T cells) [1] | IC50 [2] | binding result (Biotinylated hIL2RG) | Kd (Biotinylated hIL2RB) | Kd (hIL2RB-fc chimera [3]) | Induced Signaling EC50 (pSTAT5, YT-1 CTLL-2 cells) [4] | Kd (hIL2RG-fc chimera [5]) | other results
1 | B1 | 0.41 nM | 83 nM | no binding (tested: 200 nM) | < 1 nM |  |  |  | Signaling Inhibition IC50 (1 nM hIL-2, pSTAT5, CD4+ T cells) [1]: 1.84 nM; Signaling Inhibition IC50 (1 nM hIL-2, pSTAT5, all T cells) [1]: 0.83 nM
2 | B2 | 77.7 nM | 100 nM | no binding (tested: 200 nM) | 12 nM |  |  |  | 
3 | B3 |  |  |  |  | 17 nM | 557 nM | 1190 nM | 
4 | B4 |  |  |  |  |  |  | 277 nM | Kd (hIL2RG-fc chimera [6]): 277 nM
5 | B5 |  |  |  |  | 21 nM | 426 nM |  | binding result (hIL2RG-fc chimera [7]): no binding (tested: 5000 nM (highest concentration tested))
6 | B6 |  |  |  |  |  |  |  | Kd (hIL2RB-fc chimera [8]): 0.2 nM; binding result (hIL2RG-fc chimera [9]): no binding (tested: 200 nM); IC50 (mouse IL-2 beta receptor): > 200 nM; IC50 (hIL2RB-fc chimera [10]): 12.5 nM; Binding Inhibition IC50 (inhibition of hIL-2 pSTAT5 signaling, human pan T cells, 0.1 nM hIL2) [11]: 1.4 nM; Binding Inhibition IC50 (inhibition of hIL-2 pSTAT5 signaling, human pan T cells, 1 nM hIL2) [11]: 11.7 nM; Binding Inhibition IC50 (inhibition of hIL-2 pSTAT5 signaling, human pan T cells, 10 nM hIL2) [11]: 863 nM
